# B1: palivizumab (antibody, V domains shown)
# VH: QVTLRESGPALVKPTQTLTLTCTFSGFSLSTSGMSVGWIRQPPGKALEWLADIWWDDKKDYNPSLKSRLTISKDTSKNQVVLKVTNMDPADTATYYCARSMITNWYFDVWGAGTTVTVSS
# VL: DIQMTQSPSTLSASVGDRVTITCKCQLSVGYMHWYQQKPGKAPKLLIYDTSKLASGVPSRFSGSGSGTEFTLTISSLQPDDFATYYCFQGSGYPFTFGGGTKLEIK
# notes: also called SYNAGIS
# B2: A4B4L1FR-S28R (motavizumab) (antibody, V domains shown)
# VH: QVTLRESGPALVKPTQTLTLTCTFSGFSLSTAGMSVGWIRQPPGKALEWLADIWWDDKKHYNPSLKDRLTISKDTSKNQVVLKVTNMDPADTATYYCARDMIFNFYFDVWGQGTTVTVSS
# VL: DIQMTQSPSTLSASVGDRVTITCSASSRVGYMHWYQQKPGKAPKLLIYDTSKLASGVPSRFSGSGSGTEFTLTISSLQPDDFATYYCFQGSGYPFTFGGGTKVEIK
# Tests used:
# [1] = target: T1, RSV (Long strain) F protein on infectious virus (respiratory syncytial virus (Long …, UniProt P12568 26-574)); experiment: cell-based or functional assay
# [2] = target: T2, recombinantly produced, C-terminally truncated RSV (A2 strain) F protein (respiratory syncytial virus (A2 strain), UniProt P03420 26-524); experiment: SPR, BIAcore 3000; F protein coupled at low density to CM5 chip, mAb injected at 100-0.2 nM; 1:1 Langmuir fit
# T2 construct: extracellular domain; also called RSV F protein; truncated F protein
# T2 sequence (P03420 26-109, chain 1 of 2): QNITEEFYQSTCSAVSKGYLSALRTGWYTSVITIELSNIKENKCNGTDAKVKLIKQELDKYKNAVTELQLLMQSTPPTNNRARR
# T2 sequence (P03420 137-524, chain 2 of 2): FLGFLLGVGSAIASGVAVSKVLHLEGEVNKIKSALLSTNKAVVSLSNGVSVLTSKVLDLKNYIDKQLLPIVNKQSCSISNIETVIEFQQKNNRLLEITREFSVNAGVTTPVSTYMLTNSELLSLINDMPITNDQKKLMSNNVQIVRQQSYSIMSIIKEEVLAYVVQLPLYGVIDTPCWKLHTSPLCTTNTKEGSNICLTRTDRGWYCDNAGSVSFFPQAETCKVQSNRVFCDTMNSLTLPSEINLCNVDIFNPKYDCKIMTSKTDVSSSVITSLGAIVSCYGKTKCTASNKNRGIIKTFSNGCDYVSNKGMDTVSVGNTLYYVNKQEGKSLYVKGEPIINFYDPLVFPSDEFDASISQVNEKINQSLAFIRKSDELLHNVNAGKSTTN
# Method: (§1) Purified F protein was covalently coupled to an N-hydroxysuccinimide-N-ethyl-N′-[3-diethylaminopropyl]-carbodiimide (EDC/NHS) activated CM5 sensor chip at a low protein density according to the manufacturer's protocol; unreacted active ester groups were blocked with 1 M ethanolamine. For reference purposes, a blank surface, containing no antigen, was prepared under identical immobilization conditions.
# (§2) For kinetic measurements, a serial 2-fold dilution series of each mAb from 100 nm-0.2 nm, made in instrument buffer (HBS/Tween-20, BIAcore, Inc.), was injected over the F-protein and reference cell surfaces, which are connected in series. In each analysis, following the dissociation phase, the remaining bound antibody was removed from the sensor chip by passing a brief pulse of 100 mM HCl over the surface. Once an entire data set was collected, the resulting binding curves were globally fitted to a 1:1 Langmuir binding model using BIAevaluation software (BIAcore, Inc., Piscataway, N.J.). This algorithm calculates both the association rate (kₒₙ) and the dissociation rate (koff), from which the apparent equilibrium binding constant, KD, for each antibody was deduced as the ratio of the two rate constants, koff/kₒₙ.
# [3] = target: T1, RSV (Long strain) F protein on …; experiment: cell-based or functional assay; remark: listed apart in the source
# [4] = target: T2, recombinantly produced, C-terminally …; experiment: SPR, BIAcore 3000; F protein coupled at low density to CM5 chip; KD = koff/kon
# Method: as §1, §2
# [5] = target: T1, RSV (Long strain) F protein on …; experiment: cell-based or functional assay; remark: listed apart in the source
# [6] = target: T1, RSV (Long strain) F protein on …; experiment: cell-based or functional assay; remark: listed apart in the source
Binder,"average IC50, RSV microneutralization assay [1] [µg/mL]",koff [2] [s⁻¹],kon [2] [M⁻¹ s⁻¹],"Mean IC50 (Control), RSV microneutralization [3] [µg/mL]","Mean IC50 (Curve), RSV microneutralization [3] [µg/mL]",Kd [4] [nM],IC50 (read off the curve) [5] [µg/mL],"fold potency against palivizumab, RSV microneutralization assay [1] [fold]",IC50 (read off the curve); sample: Cyno-69 BAL [6] [µg/mL],IC50 (read off the curve); sample: purified MEDI-524 control [6] [µg/mL]
B1,0.315,0.000395,114000,0.535,0.453,3.46,~0.4,,,
B2,0.018,,,,,,~0.02,~18,~0.01,~0.007
